One block for each binder: values may come before it.
B2: STAT1 (other, human, UniProt P42224 2-750, looked up)
chain: SQWYELQQLDSKFLEQVHQLYDDSFPMEIRQYLAQWLEKQDWEHAANDVSFATIRFHDLLSQLDDQYSRFSLENNFLLQHNIRKSKRNLQDNFQEDPIQMSMIIYSCLKEERKILENAQRFNQAQSGNIQSTVMLDKQKELDSKVRNVKDKVMCIEHEIKSLEDLQDEYDFKCKTLQNREHETNGVAKSDQKQEQLLLKKMYLMLDNKRKEVVHKIIELLNVTELTQNALINDELVEWKRRQQSACIGGPPNACLDQLQNWFTIVAESLQQVRQQLKKLEELEQKYTYEHDPITKNKQVLWDRTFSLFQQLIQSSFVVERQPCMPTHPQRPLVLKTGVQFTVKLRLLVKLQELNYNLKVKVLFDKDVNERNTVKGFRKFNILGTHTKVMNMEESTNGSLAAEFRHLQLKEQKNAGTRTNEGPLIVTEELHSLSFETQLCQPGLVIDLETTSLPVVVISNVSQLPSGWASILWYNMLVAEPRNLSFFLTPPCARWAQLSEVLSWQFSSVTKRGLNVDQLNMLGEKLLGPNASPDGLIPWTRFCKENINDKNFPFWLWIESILELIKKHLLPLWNDGCIMGFISKERERALLKDQQPGTFLLRFSESSREGAITFTWVERSQNGGEPDFHAVEPYTKKELSAVTFPDIIRNYKVMAAENIPENPLKYLYPNIDKDHAFGKYYSRPKEAPEPMELDGPKGTGYIKTELISVSEVHPSRLQTTDNLLPMSPEEFDEVSRIVGSVEFDSMMNTV
notes: Cells were stimulated with IFN; also called endogenous STAT1

Assays:
STAT1/STAT2 heterodimer [1] = target: T1, STAT1/STAT2 heterodimer (human, UniProt P42224 2-750; P52630 1-851); assay: co-IP in 293T cells treated with IFNα (FIG. 9D)
T1 construct: It was inferred from co-IP after IFNα treatment and was not purified; also called STAT2/STAT1 heterodimer
Method: (§1) For extraction of nuclear and cytoplasmic proteins from cells, NE-PER Nuclear and Cytoplasmic Extraction Kit (# 78835, Thermo Fisher Scientific) was used according to the manufacturer's instructions. IP buffer (50 mM Tris-HCl pH7.5, 150 mM NaCl, 1% NP40, 0.5% Sodium Deoxycholate) was used to extract whole cell lysate. P rotein A/G agarose (# 20421, Thermo Fisher Scientific) was used for immunoprecipitation of FOXA1 (# ab23738, Abcam) and Flag-tag (dilution 1:1000; # F1804, Sigma-Aldrich). Monoclonal anti-HA agarose (# A2095, Sigma-Aldrich) was used for HA-tag Co-IP. For glutathione-S-transferase (GST) pulldown assay, GST-tagged STAT2 fragment expressed at E. coli was purified by Glutathione Sepharose 4B beads (# 84-239, Genesee Scientific) and incubated with lysate from 293T cells expressing interested proteins, and GST pulldown assays were performed. For protein co-IP, samples eluted in IP butter were incubated with agarose beads and antibodies overnight at 4° C. and washed with 6 times with IP buffer in the following day. Samples were boiled for 10 minutes in 50 μl sample buffer (2% SDS, 10% glycerol, 10% β-mercaptoethanol, bromophenol blue and Tris-HCl, pH 6.8) and subjected to Western blotting.

STAT2 [2] = target: T2, STAT2 (human, UniProt P52630 1-851); assay: co-IP in 293T cells treated with IFNα (FIG. 9D)
T2 construct: also called endogenous STAT2
Method: as §1

[3] = target: the molecule itself; assay: co-IP in 293T cells treated with IFNγ (FIG. 9D)
Method: as §1

STAT1/STAT2 heterodimer [4] = target: T1, STAT1/STAT2 heterodimer; assay: co-IP of endogenous proteins after IFNα treatment (FIG. 8A, 9A, 9B)
Method: as §1

STAT1 homodimer = target: T3, STAT1 homodimer (human, UniProt P42224 2-750); assay: co-IP of endogenous proteins after IFNγ treatment (FIG. 8A, 9A, 9B)
T3 construct: It was inferred from co-IP after IFNγ treatment and was not purified; also called STAT1/STAT1 homodimer; STAT1-STAT1 complex
T3 sequence (looked up): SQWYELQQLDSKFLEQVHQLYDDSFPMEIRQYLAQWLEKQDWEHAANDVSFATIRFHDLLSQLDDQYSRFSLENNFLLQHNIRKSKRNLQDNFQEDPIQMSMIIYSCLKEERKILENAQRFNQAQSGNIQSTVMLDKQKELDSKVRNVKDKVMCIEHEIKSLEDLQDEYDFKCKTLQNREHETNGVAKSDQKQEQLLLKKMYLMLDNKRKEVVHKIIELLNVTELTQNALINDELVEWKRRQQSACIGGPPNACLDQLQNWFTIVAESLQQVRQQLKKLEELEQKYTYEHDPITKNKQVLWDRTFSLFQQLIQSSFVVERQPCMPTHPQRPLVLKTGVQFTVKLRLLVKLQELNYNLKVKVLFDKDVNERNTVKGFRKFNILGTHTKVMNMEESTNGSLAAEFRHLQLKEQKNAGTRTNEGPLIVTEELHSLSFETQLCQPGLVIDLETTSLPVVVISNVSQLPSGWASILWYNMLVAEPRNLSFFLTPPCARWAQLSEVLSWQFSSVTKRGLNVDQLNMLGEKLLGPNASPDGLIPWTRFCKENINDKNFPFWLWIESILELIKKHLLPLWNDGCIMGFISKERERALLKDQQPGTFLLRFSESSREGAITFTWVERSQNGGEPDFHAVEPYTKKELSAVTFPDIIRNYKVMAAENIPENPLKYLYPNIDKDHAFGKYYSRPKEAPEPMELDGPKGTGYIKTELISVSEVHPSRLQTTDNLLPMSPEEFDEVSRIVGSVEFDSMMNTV
Method: as §1

STAT1 = target: B2; assay: co-IP of endogenous proteins, nuclear fraction (FIG. 8A, 9A, 9B)
Method: as §1

STAT2 [5] = target: T2, STAT2; assay: co-IP of endogenous proteins in LNCaP cells (FIG. 8A)
Method: as §1

T1 sequence (P52630 whole entry, one chain of several): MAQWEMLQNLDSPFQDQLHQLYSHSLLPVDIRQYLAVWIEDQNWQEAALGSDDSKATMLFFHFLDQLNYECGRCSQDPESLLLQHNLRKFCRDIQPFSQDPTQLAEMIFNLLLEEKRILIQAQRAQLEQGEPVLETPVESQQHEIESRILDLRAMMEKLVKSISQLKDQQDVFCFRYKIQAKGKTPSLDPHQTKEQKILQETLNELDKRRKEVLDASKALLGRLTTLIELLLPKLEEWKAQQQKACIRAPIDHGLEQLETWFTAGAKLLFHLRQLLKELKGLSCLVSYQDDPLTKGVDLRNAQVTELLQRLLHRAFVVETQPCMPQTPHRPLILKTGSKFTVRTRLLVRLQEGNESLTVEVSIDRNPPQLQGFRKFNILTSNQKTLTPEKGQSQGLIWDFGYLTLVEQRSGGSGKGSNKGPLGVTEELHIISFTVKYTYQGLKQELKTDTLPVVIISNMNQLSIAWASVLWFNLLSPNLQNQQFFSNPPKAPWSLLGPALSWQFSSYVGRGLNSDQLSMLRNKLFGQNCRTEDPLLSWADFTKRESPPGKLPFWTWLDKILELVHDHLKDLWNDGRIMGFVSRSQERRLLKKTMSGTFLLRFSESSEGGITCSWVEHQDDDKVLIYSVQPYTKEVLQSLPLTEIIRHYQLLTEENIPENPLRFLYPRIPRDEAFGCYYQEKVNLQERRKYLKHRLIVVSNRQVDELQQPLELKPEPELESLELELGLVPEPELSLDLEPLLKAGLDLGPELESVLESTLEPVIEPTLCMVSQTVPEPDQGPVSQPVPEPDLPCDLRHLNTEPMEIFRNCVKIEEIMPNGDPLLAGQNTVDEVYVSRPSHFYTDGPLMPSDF
T2 sequence (P52630 whole entry): as the sequence (P52630 whole entry, one chain of several) above

binding result (STAT1/STAT2 heterodimer [1]): binds
B1: IRF9 (other, UniProt Q00978 1-393, looked up)
chain: MASGRARCTRKLRNWVVEQVESGQFPGVCWDDTAKTMFRIPWKHAGKQDFREDQDAAFFKAWAIFKGKYKEGDTGGPAVWKTRLRCALNKSSEFKEVPERGRMDVAEPYKVYQLLPPGIVSGQPGTQKVPSKRQHSSVSSERKEEEDAMQNCTLSPSVLQDSLNNEEEGASGGAVHSDIGSSSSSSSPEPQEVTDTTEAPFQGDQRSLEFLLPPEPDYSLLLTFIYNGRVVGEAQVQSLDCRLVAEPSGSESSMEQVLFPKPGPLEPTQRLLSQLERGILVASNPRGLFVQRLCPIPISWNAPQAPPGPGPHLLPSNECVELFRTAYFCRDLVRYFQGLGPPPKFQVTLNFWEESHGSSHTPQNLITVKMEQAFARYLLEQTPEQQAAILSLV

Binder: B2
binding result (STAT2 [2]): binds | binding result [3]: binds

binding result (STAT1/STAT2 heterodimer [4]): binds | binding result (STAT1 homodimer): binds | binding result (STAT1): binds | binding result (STAT2 [5]): binds
B3: FOXA1 (Forkhead box protein A1), wild type (other, human, UniProt P55317 1-472, looked up)
chain: MLGTVKMEGHETSDWNSYYADTQEAYSSVPVSNMNSGLGSMNSMNTYMTMNTMTTSGNMTPASFNMSYANPGLGAGLSPGAVAGMPGGSAGAMNSMTAAGVTAMGTALSPSGMGAMGAQQAASMNGLGPYAAAMNPCMSPMAYAPSNLGRSRAGGGGDAKTFKRSYPHAKPPYSYISLITMAIQQAPSKMLTLSEIYQWIMDLFPYYRQNQQRWQNSIRHSLSFNDCFVKVARSPDKPGKGSYWTLHPDSGNMFENGCYLRRQKRFKCEKQPGAGGGGGSGSGGSGAKGGPESRKDPSGASNPSADSPLHRGVHGKTGQLEGAPAPGPAASPQTLDHSGATATGGASELKTPASSTAPPISSGPGALASVPASHPAHGLAPHESQLHLKGDPHYSFNHPFSINNLMSSSEQQHKLDFKAYEQALQYSPYGSTLPASLPLGSASVTTRSPIEPSALEPAYYQGVYSRPVLNTS
notes: also called FOXA1-WT; WT FOXA1

Reference: patent publication US20230079757A1, “METHODS AND MATERIALS FOR TREATING CANCER” (Mayo Foundation for Medical Education and Research, priority 2020, published 2023)
